B1: LINE1-full (parent)
chain: UACGUAGGUGGUUUUCCCCUGAUAGUGCUAAGGGGGCCUGGAAGUUUGGACUGGGCAGAGCUCAACACAGCGUGGCAAAGUGGCUGUGGCUAGACUGCCUCUCUGGAUUCCUCGUCACUCAGCAGGGCAUCUCUGAGAGAAAUGCC

Variants of: B1
Assay: self-cleavage, relative activity (ratio to wild type); higher = more cleavage; in vitro, sequencing; the parent is a self-cleaving ribozyme
Variant UACGUAGGCGGUUUUCCCCUGAUAGUGAUAAGGGGGCCUGGAAGUUUGGACUGGGCAGAGCUCAACACAGCGUGGCAAAGUGGCUGUGGCUAGACUGCCUCUCUGGAUUCCUCGUCACUCAGCAGGGCAUCUCUGAGAGAAAUGCC has a self-cleavage of 1.16.
UACGUAGGCGGUUUUCCCCUGAUAGUGCUAAGGGGGCCUGGAAGUUUGGACUGGGCAGAGCUCAACACAGCGUGGCAAAGUGGCUGUGGCUAGACUGCCUCUCUGGAUUCCUCGUCACUCAGCAGGGCAUCUCUGAGGGAAAUGCC showed a self-cleavage of 1.21.
Work on UACGUAGGCGGUUUUCCCCUGAUAGUGCUAAGGGGGCCUGGAAGUUUGGACUGGGCAGAGCUCAACACAGCGUGGCAAAGUGGCUGUGGCUAGACUGGCUCUCUGGAUUCCUCGUCACUCAGCAGGGCAUCUCUGAGAGAAAUGCC yielded a self-cleavage of 0.22.
UACGUAGGCGGUUUUCCCCUGAUAGUGCUAAGGGGGCCUGGAAGUUUGGACUGGGCAGAGCUCAACACAGCGUGGCAAAGUGGCUGUGGCUAGACUGCCUCUCUGGAUUCCUCGUCACUCAGCUGGGCAUCUCUGAGAGAAAUGCC showed a self-cleavage of 1.26.
Work on UACGUAGGCGGUUUUCCCCUGAUAGUGCUAAGGGGGCCUGGAAGUUUGGACUGGGCAGAGCUCAACACAGCGUGGCAAAGUGGCUGUGGCUAGACUGCCUCUCUGGAUUCCUCGUCACUCAGCAGGGCAUCUCUGAGAGAAUUGCC yielded a self-cleavage of 1.38.
In the case of UACGUAGGCGGUUUUCCCCUGAUAGUGCUAAGGGGGCCUGGAAGUUUGGACUGGGCAGAGCUCAACACAGCGUGGCAAAGUGGCUGUGGCUAGACUGCCUCUCUGGAUUCCUCGUCACUCAGCAGGGCAUCUCUGAGAGAACUGCC, the self-cleavage is reported as 0.83.
With UACGUAGGCGGUUUUCCCCUGAUAGUGCUAAGGGGGCCUGGAAGUUUGGACUGGGCAGAGCUCAACACAGCGUGGCAAAGUGGCUGUGGCUAGACUGCCUCUCUGGAUUCCUCGUCACUCAGCAGGGCAUCUCUGAGAGAAGUGCC the self-cleavage was 1.24.
Variant UACGUAGGCGGUUUUACCCUGAUAGUGCUAAGGGGGCCUGGAAGUUUGGACUGGGCAGAGCUCAACACAGCGUGGCAAAGUGGCUGUGGCUAGACUGCCUCUCUGGAUUCCUCGUCACUCAGCAGGGCAUCUCUGAGAGAAAUGCC has a self-cleavage of 0.59.
UACGUAGGCGGUUUUCCCCUGAUAGUGCUAAGGGGGCCUGGAAGUUUGGACUGGGCAGAGCUCAACACAGCGUGGCAAAGUGGCUGUGGCUAGACUGCCUCUCUGGAUUCCUCGUCACUCAGCAGGGCAUCUCUGGGAGAAAUGCC gave a self-cleavage of 1.75.
UACGUAGGCGGUUUUCCCCUGAUAGUGCUAAGGGGGCCUGGAAGUUUGGACUGGGCAGAGCUCAACACAGCGUGGCAAAGUGGCUGUGGCUAGACUGCCUCUCUGGAUUCCUCGUCACUCAGCAGGGCAUCUCUGUGAGAAAUGCC gave a self-cleavage of 1.3.
UACGUAGGCGGUUUUCCCCUGAUAGUGCUAAGGGGGCCUGGAAGUUUGGACUGGGCAGAGCUCAACACAGCGUGGGAAAGUGGCUGUGGCUAGACUGCCUCUCUGGAUUCCUCGUCACUCAGCAGGGCAUCUCUGAGAGAAAUGCC showed a self-cleavage of 2.04.
In the case of UACGUAGGCGGUUUUCCCCUGAUAGUGCUAAGGGGGCCUGGAAGUUUGGACUGGGCAGAGCUCAACACAGCGUGGCAAAGUGGCUGUGGCUAGACUGCCUCUCUGGAUUCCUGGUCACUCAGCAGGGCAUCUCUGAGAGAAAUGCC, the self-cleavage is reported as 1.75.
For UACGUAGGCGGUUUUCCCCUGAUAGUGCUAAGGGGGCCUGGAAGUUUGGACUGGGCAGAGCUCAAUACAGCGUGGCAAAGUGGCUGUGGCUAGACUGCCUCUCUGGAUUCCUCGUCACUCAGCAGGGCAUCUCUGAGAGAAAUGCC, the self-cleavage was 0.08.
With UACGUAGGCGGUUUUCCCCUGAUAGUGCUAAGGGGGCCUGGAAGUUUGGACUGGGCAGAGCUCAACACAGCGUGGCAAAGUGGAUGUGGCUAGACUGCCUCUCUGGAUUCCUCGUCACUCAGCAGGGCAUCUCUGAGAGAAAUGCC the self-cleavage was 0.26.
Variant UACGUAGGCGGUUUUCCCCUGAUAGUGCUAAGGGGGCUUGGAAGUUUGGACUGGGCAGAGCUCAACACAGCGUGGCAAAGUGGCUGUGGCUAGACUGCCUCUCUGGAUUCCUCGUCACUCAGCAGGGCAUCUCUGAGAGAAAUGCC has a self-cleavage of 1.29.
For UACGUAGGCGGUUUUCCCCUGAUAGUGCUAAGGGGGCCUGGAAGUUUGGACUGGGCAGAGCUCAACACAGCGUGGCAAAGUGGCUGUGGCUAGACUGCCUCUUUGGAUUCCUCGUCACUCAGCAGGGCAUCUCUGAGAGAAAUGCC, the self-cleavage was 1.4.
UACGUAGGCGGUUUUCCCCUGAUAGUGCUAAGGGGGCCUGGAAGUUUGGACUGGGCAGAGCUCAACACAGCGUGGCAAAGUGGCUGUGGCUAGAGUGCCUCUCUGGAUUCCUCGUCACUCAGCAGGGCAUCUCUGAGAGAAAUGCC gave a self-cleavage of 0.12.
UACGUAGGCGGUUUUCCCCUGAUAGUGCUAAGGGGGCCUGGAAGUUUGGACUGGGCAGAGUUCAACACAGCGUGGCAAAGUGGCUGUGGCUAGACUGCCUCUCUGGAUUCCUCGUCACUCAGCAGGGCAUCUCUGAGAGAAAUGCC gave a self-cleavage of 0.08.
Variant UACGUAGGCGGUUUUCCCCUGAUAGUGCUAAGGGGGCCUGGAAGUUUGGACUGGGCAGAGCUCAACACAGCGUGGCAAAGUGGCUGUGGCUAGACUGCCUCUCUGGAUUCCUCGUCACUCAGCAGGGCAUCUCUGAGAGAUAUGCC has a self-cleavage of 1.53.
Variant UACGUAGGCGGUUUUCCCCUGAUAGUGCUAAGGGGGCCUGGAAGUUUGGACUGGGCAGAGCUCAACACAGCGUGGCAAAGUGGCUGUGGCUAGACUGCCUCUCUGGAUUCCUCGUCACUCAGCAGGGCAUCUCUGAGAGAGAUGCC has a self-cleavage of 1.36.

From the RNAGym collection of RNA variant scans (doi:10.7554/elife.90254)
